The record followed here is patent US20140287952A1 (ALDERBIO, published 2014).

The term EC50 denotes the concentration needed to bring the measured effect to its halfway point. A high value points to a need for much substance.

For experiment [1], the target named is T1, human beta-NGF (human, UniProt P01138 122-241, limits assumed, biotinylated in the ELISA (site not stated)).
T1 construct: Biotinylated and captured on Neutravidin plates in the ELISA; Used unlabelled in the TF1 proliferation assay; also called hu B-NGF; huB-NGF
T1 sequence (P01138 122-241 limits assumed): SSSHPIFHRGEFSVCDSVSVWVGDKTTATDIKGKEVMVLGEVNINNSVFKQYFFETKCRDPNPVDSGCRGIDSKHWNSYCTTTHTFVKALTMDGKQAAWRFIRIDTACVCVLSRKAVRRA
Nature of the experiment: ELISA: biotinylated hu B-NGF on Neutravidin plates, antibody dilution series, anti-human IgG Fc-HRP, OD450. Background: An ELISA detects its analyte on a solid surface through an enzyme-linked reagent.

For experiment [2], the target named is T2, human CGRP alpha (human, UniProt P06881 83-119, N-terminally or C-terminally biotinylated (the two ELISAs were run separately)).
T2 construct: Bought peptide; N- and C-terminally biotinylated forms were captured on neutravidin plates; also called HuCGRP alpha; CGRPα
T2 peptide (looked up): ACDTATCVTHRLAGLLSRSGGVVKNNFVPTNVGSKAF
Nature of the experiment: ELISA: biotinylated human CGRP alpha on neutravidin plates (the sheet does not say whether N- or C-terminally biotinylated), antibody dilution series, OD450.

Experiment [3] deals with T3, human PCSK9 (human, UniProt Q8NBP7 31-692, biotinylated in the ELISA (site not stated)). Nature of the experiment: cell-based or functional assay.
T3 sequence (Q8NBP7 31-692 limits assumed): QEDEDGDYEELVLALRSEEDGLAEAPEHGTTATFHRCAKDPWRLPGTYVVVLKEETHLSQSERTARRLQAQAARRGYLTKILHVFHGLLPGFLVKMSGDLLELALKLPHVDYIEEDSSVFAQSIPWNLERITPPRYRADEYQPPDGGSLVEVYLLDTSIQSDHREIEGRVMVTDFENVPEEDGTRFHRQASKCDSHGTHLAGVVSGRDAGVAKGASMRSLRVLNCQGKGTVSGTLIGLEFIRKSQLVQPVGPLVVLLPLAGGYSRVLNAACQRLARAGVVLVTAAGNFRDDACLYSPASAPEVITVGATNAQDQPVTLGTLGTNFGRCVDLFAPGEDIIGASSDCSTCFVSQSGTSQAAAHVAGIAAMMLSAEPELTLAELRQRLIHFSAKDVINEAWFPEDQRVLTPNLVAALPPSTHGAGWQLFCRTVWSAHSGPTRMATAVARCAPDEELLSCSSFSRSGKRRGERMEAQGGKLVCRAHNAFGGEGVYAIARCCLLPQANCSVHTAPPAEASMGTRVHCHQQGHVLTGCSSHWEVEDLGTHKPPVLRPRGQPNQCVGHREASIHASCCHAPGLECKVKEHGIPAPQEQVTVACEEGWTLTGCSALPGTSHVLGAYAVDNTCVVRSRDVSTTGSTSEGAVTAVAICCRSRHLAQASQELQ
Experiment [4] deals with T3, human PCSK9. Nature of the experiment: ELISA: biotinylated human PCSK9 on Neutravidin plates, antibody dilution series, anti-human IgG Fc-HRP, OD450.

B1: Ab7 (antibody, V domains shown)
VH: QEQLKESGGRLVTPGTPLTLTCTVSGFSLSSYAMIWVRQAPGKGLEYIGYIDTDTSAYYASWVKGRFTISRTSTTVDLKITSPTTEDTATYFCARSYAAYGGYPATFDPWGPGTLVTVSS
VL: DVVMTQTPASVSQPVGGTVTIKCQASEDIYNLLAWYQQKPGQPPKLLIYSASTLASGVPSRFKGSGSGTEYTLTISGLECADAATYYCQNNYLVTTYGVAFGGGTEVVVK
In experiment [1], B1 came in with a concentration for a half-maximal effect (EC50) of 182 pM.

B2: Ab3 (antibody, V domains shown)
VH: EVQLVESGGGLVQPGGSLRLSCAVSGLDLSSYYMQWVRQAPGKGLEWVGVIGINDNTYYASWAKGRFTISRDNSKTTVYLQMNSLRAEDTAVYFCARGDIWGQGTLVTVSS
VL: QVLTQSPSSLSASVGDRVTINCQASQSVYDNNYLAWYQQKPGKVPKQLIYSTSTLASGVPSRFSGSGSGTDFTLTISSLQPEDVATYYCLGSYDCSSGDCFVFGGGTKVEIKR
B2 gave an EC50 in experiment [2] of 127 pM.

B3: Ab8 (antibody, V domains shown)
VH: QVQLVESGGGVVQPGRSLRLSCAASGFTFSSYAMIWVRQAPGKGLEYIGYIDTDTSAYYASSVKGRFTISRDNSKNTLYLQMSSLRAEDTAVYYCARSYAAYGGYPATFDPWGQGTLVTVSS
VL: DIQMTQSPSSLSASVGDRVTITCQASEDIYNLLAWYQQKPGKVPKLLIYSASTLASGVPSRFSGSGSGTDYTLTISSLQPEDVATYYCQNNYLVTTYGVAFGGGTKVEIK
Turning to B3, the concentration giving a half-maximal response (EC50) in experiment [1] is 254 pM.

B4: Ab4 (antibody, V domains shown)
VH: QSLEESGGRLVTPGTPLTLTCSVSGIDLSGYYMNWVRQAPGKGLEWIGVIGINGATYYASWAKGRFTISKTSSTTVDLKMTSLTTEDTATYFCARGDIWGPGTLVTVSS
VL: QVLTQTPSPVSAAVGSTVTINCQASQSVYHNTYLAWYQQKPGQPPKQLIYDASTLASGVPSRFSGSGSGTQFTLTISGVQCNDAAAYYCLGSYDCTNGDCFVFGGGTEVVVKR
Molecule B4 returned an EC50 in experiment [2] of 159 pM.

B5: Ab2 (antibody, V domains shown)
VH: SVEESGGRLVTPGTPLTLTCTVSGFSLSSYAMSWVRQAPGKGLEWIGIIDAIDNTYYASWAKGRFTISKTSTTVDLKMTSLTTGDTATYFCARASILGYSIATGFNIWGPGTLVTVSS
VL: AYDMTQTPASVEVAVGGTVTIKCQASQSISSHLAWYQQKSGQPPKLLIYRASTLESGVSSRFKGSGSGTEFTLTISDLECADAATYYCQQGYGVSDVDNGFGGGTEVVVK
On to B5, for which the “IC50; LDL uptake assay: BODIPY-LDL uptake (RFUs) by HepG2 cells, antibody pre-incubated with 3 µg/mL PCSK9; RFUs rise with the antibody concentration” value in experiment [3] is 17300 pM. Also, in experiment [4], a half-maximal effect (EC50) was put at 174 pM.
